In patent publication US20140072613A1, “Compositions and Methods for Treating Cutaneous Scarring” (priority 2012, published 2014):

Assays:
Assay in all cases: cell-based or functional assay
AMPKα2(h) (human) = AMPKα2(h) (human) (UniProt P54646)
ARK5(h) (human) = target: T1, ARK5(h) (human) (UniProt O60285)
T1 sequence (looked up): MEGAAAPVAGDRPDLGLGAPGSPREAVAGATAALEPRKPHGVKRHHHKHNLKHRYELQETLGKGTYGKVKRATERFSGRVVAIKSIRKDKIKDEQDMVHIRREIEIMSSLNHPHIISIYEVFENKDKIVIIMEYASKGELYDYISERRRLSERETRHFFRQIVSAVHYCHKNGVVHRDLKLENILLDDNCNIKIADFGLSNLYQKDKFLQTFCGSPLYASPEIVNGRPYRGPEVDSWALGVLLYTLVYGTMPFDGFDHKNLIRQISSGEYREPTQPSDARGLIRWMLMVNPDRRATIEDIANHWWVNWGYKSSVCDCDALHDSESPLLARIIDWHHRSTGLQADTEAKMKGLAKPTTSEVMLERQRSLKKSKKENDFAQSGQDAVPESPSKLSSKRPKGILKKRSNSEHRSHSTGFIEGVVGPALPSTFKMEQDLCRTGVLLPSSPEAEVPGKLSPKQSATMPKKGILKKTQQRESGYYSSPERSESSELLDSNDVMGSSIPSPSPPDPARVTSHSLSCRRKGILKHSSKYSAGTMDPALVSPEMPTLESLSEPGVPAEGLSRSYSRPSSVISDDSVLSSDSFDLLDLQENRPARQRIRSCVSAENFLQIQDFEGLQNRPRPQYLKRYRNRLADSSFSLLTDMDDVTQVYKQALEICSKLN

CDK2/cyclinA(h) (human) = CDK2/cyclinA(h) (human) (UniProt P24941)
CaMKIV(h) (human) = CaMKIV(h) (human) (UniProt Q16566)
Chain of CaMKIV(h) (human) (Q16566 whole entry): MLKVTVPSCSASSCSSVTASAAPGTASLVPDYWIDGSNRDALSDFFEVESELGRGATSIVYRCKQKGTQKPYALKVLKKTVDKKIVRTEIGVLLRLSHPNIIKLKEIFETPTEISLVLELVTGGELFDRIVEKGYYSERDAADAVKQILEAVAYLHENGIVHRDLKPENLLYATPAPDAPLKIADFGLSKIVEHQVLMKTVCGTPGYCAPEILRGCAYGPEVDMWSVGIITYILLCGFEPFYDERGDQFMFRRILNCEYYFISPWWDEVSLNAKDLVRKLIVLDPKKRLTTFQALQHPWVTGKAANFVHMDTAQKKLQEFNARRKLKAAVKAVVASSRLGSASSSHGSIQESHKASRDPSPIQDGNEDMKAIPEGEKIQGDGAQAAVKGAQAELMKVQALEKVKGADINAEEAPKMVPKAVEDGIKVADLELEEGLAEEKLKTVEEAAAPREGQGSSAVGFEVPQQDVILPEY

DYRK2(h) (human) = DYRK2(h) (human) (UniProt Q92630)
Chain of DYRK2(h) (human) (Q92630 whole entry): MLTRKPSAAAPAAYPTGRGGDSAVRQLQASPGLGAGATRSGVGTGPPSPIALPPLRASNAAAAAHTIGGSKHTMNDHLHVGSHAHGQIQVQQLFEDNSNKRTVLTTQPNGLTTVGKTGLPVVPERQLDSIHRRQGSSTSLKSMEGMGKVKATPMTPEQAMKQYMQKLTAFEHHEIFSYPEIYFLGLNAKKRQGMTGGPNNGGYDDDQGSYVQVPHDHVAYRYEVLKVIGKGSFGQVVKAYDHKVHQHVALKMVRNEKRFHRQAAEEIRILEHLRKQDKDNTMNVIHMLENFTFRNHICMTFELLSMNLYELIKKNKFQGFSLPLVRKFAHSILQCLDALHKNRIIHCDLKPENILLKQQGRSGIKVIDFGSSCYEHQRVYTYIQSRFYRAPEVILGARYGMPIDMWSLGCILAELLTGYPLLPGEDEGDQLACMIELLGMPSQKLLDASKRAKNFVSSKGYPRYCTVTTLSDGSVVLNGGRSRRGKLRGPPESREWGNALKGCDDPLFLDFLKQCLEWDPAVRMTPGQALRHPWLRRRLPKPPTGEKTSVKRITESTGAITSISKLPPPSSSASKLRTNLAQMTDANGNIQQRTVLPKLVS

EGFR(h) (human) = EGFR(h) (human) (UniProt P00533)
Fer(h) (human) = Fer(h) (human) (UniProt P16591)
Chain of Fer(h) (human) (P16591 541-822 limits assumed): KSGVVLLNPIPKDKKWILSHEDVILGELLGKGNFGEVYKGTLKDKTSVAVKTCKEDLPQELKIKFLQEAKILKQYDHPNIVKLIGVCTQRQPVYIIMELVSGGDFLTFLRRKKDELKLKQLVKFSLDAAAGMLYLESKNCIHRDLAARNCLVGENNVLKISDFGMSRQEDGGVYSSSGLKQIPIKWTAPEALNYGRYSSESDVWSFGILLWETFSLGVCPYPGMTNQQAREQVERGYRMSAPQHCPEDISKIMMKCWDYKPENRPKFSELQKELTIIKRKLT

Itk(h) (human) = target: T2, Itk(h) (human) (UniProt Q08881)
T2 sequence (looked up): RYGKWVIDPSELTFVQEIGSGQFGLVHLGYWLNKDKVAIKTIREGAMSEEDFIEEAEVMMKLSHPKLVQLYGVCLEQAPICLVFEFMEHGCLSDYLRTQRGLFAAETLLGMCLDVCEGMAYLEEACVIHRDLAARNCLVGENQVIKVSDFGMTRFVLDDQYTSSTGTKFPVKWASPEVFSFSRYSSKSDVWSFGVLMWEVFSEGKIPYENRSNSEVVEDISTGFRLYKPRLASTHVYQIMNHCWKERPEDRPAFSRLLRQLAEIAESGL

LKB1(h) (human) = target: T3, LKB1(h) (human) (UniProt Q15831)
T3 sequence (looked up): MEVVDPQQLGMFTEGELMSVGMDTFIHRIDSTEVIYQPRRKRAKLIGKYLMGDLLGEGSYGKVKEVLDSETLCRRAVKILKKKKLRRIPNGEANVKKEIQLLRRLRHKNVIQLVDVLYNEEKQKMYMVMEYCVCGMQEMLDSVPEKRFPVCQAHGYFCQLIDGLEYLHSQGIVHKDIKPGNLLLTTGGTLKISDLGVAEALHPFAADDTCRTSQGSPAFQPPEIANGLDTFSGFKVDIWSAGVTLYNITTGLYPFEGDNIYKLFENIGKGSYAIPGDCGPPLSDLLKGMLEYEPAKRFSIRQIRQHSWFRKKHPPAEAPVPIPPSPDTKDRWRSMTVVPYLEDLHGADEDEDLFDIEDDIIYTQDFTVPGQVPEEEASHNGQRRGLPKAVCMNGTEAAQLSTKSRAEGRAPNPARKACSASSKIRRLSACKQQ

Lck(h) activated (human) = Lck(h) activated (human) (UniProt P06239)
Chain of Lck(h) activated (human) (P06239 whole entry): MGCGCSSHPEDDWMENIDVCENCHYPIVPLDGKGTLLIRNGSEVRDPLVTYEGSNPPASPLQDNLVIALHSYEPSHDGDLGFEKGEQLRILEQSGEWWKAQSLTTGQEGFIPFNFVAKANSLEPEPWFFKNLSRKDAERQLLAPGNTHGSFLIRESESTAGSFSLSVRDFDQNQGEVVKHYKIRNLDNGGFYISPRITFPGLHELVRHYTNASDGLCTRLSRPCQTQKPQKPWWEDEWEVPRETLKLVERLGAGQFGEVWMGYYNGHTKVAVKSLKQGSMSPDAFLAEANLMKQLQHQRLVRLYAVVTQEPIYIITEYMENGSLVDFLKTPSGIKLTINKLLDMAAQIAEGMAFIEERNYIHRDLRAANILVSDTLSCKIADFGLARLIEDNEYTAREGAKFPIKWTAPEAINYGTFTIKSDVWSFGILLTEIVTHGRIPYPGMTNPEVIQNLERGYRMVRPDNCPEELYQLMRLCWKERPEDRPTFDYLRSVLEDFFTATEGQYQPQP

MST3(h) (human) = MST3(h) (human) (UniProt Q9Y6E0)
Chain of MST3(h) (human) (Q9Y6E0 whole entry): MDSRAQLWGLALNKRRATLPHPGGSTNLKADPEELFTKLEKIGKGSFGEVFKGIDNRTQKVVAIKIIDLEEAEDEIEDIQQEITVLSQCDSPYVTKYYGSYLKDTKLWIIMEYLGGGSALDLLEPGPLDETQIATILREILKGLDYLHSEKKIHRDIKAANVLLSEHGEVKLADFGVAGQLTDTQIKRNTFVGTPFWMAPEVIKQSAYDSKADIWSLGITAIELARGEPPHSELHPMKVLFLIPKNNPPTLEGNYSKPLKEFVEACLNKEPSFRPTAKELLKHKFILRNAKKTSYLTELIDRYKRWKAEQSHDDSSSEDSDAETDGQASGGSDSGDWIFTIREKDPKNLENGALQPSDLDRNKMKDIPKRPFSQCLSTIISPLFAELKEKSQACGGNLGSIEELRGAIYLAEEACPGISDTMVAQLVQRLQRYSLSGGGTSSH

Met(Y1248H)(h) (human) = Met(Y1248H)(h) (human) (UniProt P08581)
MuSK(h) (human) = MuSK(h) (human) (UniProt O15146)
Chain of MuSK(h) (human) (O15146 517-869 limits assumed): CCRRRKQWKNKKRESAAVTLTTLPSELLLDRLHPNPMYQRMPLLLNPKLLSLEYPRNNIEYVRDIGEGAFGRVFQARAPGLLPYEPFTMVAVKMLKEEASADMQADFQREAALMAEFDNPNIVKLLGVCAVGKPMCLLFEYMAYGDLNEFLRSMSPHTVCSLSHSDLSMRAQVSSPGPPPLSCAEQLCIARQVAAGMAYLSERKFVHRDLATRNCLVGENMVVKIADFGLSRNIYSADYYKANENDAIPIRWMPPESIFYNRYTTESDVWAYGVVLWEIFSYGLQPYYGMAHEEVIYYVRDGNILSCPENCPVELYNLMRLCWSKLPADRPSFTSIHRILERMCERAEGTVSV

PKCθ(h) (human) = PKCθ(h) (human) (UniProt Q04759)
Chain of PKCθ(h) (human) (Q04759 whole entry): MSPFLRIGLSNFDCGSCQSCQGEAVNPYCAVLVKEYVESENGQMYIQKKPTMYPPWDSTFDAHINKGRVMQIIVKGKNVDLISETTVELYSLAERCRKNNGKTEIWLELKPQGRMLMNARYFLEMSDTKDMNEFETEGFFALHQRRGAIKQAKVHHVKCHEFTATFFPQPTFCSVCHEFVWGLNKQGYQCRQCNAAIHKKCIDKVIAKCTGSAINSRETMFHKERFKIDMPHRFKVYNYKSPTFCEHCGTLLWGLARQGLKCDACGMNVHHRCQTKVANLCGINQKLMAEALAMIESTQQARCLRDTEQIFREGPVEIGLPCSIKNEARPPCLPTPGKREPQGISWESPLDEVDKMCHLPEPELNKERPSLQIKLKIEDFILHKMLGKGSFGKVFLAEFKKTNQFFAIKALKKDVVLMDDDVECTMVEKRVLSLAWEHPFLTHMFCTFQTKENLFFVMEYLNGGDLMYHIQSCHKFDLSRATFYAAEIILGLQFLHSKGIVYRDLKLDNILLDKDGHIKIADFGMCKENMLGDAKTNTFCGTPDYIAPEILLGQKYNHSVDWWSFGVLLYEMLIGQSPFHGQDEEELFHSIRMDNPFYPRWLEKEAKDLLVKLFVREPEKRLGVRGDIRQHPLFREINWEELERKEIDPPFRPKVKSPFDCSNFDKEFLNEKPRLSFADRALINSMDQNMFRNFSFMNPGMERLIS

SAPK2a(T106M)(h) (human) = SAPK2a(T106M)(h) (human) (UniProt Q16539)
Chain of SAPK2a(T106M)(h) (human) (Q16539 whole entry T106M): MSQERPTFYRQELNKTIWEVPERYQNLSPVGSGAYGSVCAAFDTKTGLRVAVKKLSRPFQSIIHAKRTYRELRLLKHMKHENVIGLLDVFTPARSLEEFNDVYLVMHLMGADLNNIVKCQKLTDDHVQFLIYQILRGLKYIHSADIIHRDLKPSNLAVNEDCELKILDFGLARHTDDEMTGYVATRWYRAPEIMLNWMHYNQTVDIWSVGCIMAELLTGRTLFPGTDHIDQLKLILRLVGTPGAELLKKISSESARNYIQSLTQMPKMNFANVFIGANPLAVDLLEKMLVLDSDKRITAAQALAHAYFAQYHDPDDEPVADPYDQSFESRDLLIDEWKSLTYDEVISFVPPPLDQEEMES

TAO2(h) (human) = target: T4, TAO2(h) (human) (UniProt Q9UL54)
T4 sequence (looked up): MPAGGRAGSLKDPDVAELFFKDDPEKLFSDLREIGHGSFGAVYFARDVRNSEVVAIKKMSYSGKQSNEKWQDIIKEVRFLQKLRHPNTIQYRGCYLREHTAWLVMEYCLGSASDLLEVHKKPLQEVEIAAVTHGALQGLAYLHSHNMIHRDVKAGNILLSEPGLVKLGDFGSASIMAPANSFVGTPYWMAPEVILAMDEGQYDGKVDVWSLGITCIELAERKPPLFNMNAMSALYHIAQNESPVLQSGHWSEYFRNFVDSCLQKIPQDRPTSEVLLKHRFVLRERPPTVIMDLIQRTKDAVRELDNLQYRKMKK

TSSK2(h) (human) = target: T5, TSSK2(h) (human) (UniProt Q96PF2)
T5 sequence (looked up): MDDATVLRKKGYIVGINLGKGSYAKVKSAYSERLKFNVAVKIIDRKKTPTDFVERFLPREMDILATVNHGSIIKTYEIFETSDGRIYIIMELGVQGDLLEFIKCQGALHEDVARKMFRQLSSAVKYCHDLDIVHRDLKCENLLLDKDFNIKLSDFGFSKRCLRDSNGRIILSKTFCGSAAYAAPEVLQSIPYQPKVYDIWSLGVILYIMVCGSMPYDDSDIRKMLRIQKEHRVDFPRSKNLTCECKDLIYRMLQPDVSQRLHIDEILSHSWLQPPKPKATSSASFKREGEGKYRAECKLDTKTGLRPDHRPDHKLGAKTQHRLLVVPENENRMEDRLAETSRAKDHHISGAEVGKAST

cKit(D816H)(h) (human) = cKit(D816H)(h) (human) (UniProt P10721)
Chain of cKit(D816H)(h) (human) (P10721 544-976 D816H): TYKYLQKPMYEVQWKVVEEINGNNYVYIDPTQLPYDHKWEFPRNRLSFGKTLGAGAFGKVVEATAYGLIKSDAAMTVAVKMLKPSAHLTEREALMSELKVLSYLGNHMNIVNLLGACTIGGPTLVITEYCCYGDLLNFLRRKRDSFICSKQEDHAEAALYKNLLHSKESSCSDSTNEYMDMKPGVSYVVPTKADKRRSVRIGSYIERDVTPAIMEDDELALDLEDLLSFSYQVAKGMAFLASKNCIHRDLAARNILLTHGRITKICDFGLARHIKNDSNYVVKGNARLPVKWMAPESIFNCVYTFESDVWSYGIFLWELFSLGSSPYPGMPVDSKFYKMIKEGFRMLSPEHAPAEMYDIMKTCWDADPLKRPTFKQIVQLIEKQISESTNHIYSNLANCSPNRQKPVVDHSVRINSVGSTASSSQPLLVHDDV

Chain of AMPKα2(h) (human) (P54646 whole entry): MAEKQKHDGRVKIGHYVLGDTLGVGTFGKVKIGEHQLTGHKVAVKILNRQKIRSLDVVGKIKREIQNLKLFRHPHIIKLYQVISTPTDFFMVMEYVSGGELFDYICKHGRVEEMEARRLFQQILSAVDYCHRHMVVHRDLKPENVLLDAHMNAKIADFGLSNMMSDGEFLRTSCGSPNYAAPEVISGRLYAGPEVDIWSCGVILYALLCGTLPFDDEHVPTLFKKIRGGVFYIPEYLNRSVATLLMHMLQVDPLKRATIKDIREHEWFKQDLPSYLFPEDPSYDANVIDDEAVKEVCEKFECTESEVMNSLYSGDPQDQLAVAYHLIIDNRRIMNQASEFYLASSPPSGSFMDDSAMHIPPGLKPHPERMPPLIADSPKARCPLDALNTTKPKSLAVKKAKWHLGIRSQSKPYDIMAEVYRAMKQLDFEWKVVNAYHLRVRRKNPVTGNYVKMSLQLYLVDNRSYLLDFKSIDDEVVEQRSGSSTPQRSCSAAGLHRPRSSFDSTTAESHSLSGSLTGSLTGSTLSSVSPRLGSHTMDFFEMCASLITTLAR

% activity, 100 µM (AMPKα2(h) (human)): 9% | % activity, 100 µM (ARK5(h) (human)): 20% | % activity, 100 µM (CDK2/cyclinA(h) (human)): 87% | % activity, 100 µM (CaMKIV(h) (human)): -1% | % activity, 100 µM (DYRK2(h) (human)): 127% | % activity, 100 µM (EGFR(h) (human)): -1% | % activity, 100 µM (Fer(h) (human)): 196% | % activity, 100 µM (Itk(h) (human)): 7% | % activity, 100 µM (LKB1(h) (human)): 51% | % activity, 100 µM (Lck(h) activated (human)): 76% | % activity, 100 µM (MST3(h) (human)): 4% | % activity, 100 µM (Met(Y1248H)(h) (human)): 126% | % activity, 100 µM (MuSK(h) (human)): 27% | % activity, 100 µM (PKCθ(h) (human)): 62% | % activity, 100 µM (SAPK2a(T106M)(h) (human)): 32% | % activity, 100 µM (TAO2(h) (human)): 15% | % activity, 100 µM (TSSK2(h) (human)): 92% | % activity, 100 µM (cKit(D816H)(h) (human)): 194%
Substance: MMI-0500 (peptide)
